Measured values as given in the supplement of paper PMC9170038.

Test system: MS2 coat protein
Experiment: apparent KD of MS2 coat protein; designed switch direction (-1 OFF switch, 1 ON switch): -1; higher = weaker reporter binding
Outline: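 Designed RNA switches with common flanks were made on Illumina chips by stalled E. coli RNA polymerase. Titration with SNAP-549-labelled MS2 coat protein doubled from 0.7 or 1.5 nM up to 3 µM. Apparent KD is each design's median over clusters after curve-fitting normalised fluorescence.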

[1] = input ligand: microRNA oligo, concentration not stated
[2] = Eterna round: R95, input ligand: FMN 200 uM
[3] = Eterna round: R95, input ligand: microRNA oligo, concentration not stated
[4] = Eterna round: R95, input ligand: none

Sequence	apparent KD of MS2 coat protein (input ligand: FMN 200 uM) [µM]	apparent KD of MS2 coat protein (input ligand: none) [µM]	apparent KD of MS2 coat protein [1] [µM]	apparent KD of MS2 coat protein [2] [µM]	apparent KD of MS2 coat protein [3] [µM]	apparent KD of MS2 coat protein [4] [µM]
AAUUUGCAAGCGAGAUCCCACAUGAGGAUCACCCAUGUGCUCGUCUUAUAAGGUACUGUGACGAUAGUCACGGUACC [Mat - Sensor, turn-off var - Eli Mod - D93] (Eterna round: R97, puzzle: Sensor, turn-off variant 1)	0.0141	0.0143	–	–	–	–
ACAAAACAUGAGGAUCACCCAUGUGAGGAUAUGCGAAACAAACAAACAAACAAACAAAGCAGAAGGCACAACAA [Ex 1 Tesla 3] (Eterna round: R96, puzzle: Exclusion 1)	–	–	0.0156	–	–	–
ACAAACAACAUAGGAUAUCUGCGGGUGUCAGUGCUCAUGGAUCUCCACAUGAGGAUCACCCAUGUAGAGAAGGAUGAACGCUUA [Retionzaan] (Eterna round: R96, puzzle: Exclusion NG 2)	0.0824	0.0141	0.0089	–	–	–
ACAAACAGCUGAGGAUAUCACGAGCAAGGCCAGUGAGAAGGUAGCUCAAACAUGAGGAUCACCCAUGUUAAACUUCCUCAUGCG [Raisorar] (Eterna round: R96, puzzle: Exclusion NG 1)	0.0137	0.0177	0.0104	–	–	–
ACAAGCGCGAAAGUCUUAUACAUGAGGAUCACCCAUGUUCUCAAGGUCUUAUGUACUGACACGAUUACUCGUCUUAU [AK-miRNA-r3-4] (Eterna round: R97, puzzle: Sensor, turn-off variant 1)	0.117	0.112	–	–	–	–
ACAAGCUAAGUGCUCGGUCCGGGAGACACGUGAUCAGCGACAUGAGGAUCACCCAUGUAAUAGGAGCUUAAAACGUU [solution 46] (Eterna round: R96, puzzle: Sensor v2, turn-off variant 2)	0.015	0.0197	0.0201	–	–	–
ACAAGCUCUGUGGGUGGGUACAUGAGGAUCACCCAUGUUUUGCUCGUCUUGUGGGCCCGGGCCCGCGGCCCGGGCCC [-41.4, -69.7, A 12%] (Eterna round: R97, puzzle: Sensor, turn-off variant 1)	0.604	1.18	–	–	–	–
ACAAGCUUAGGUUUUCAUAACAUGAGGAUCACCCAUGUUCGUCUUAUAAAAAUAAAAAUAAAAAACAAAAAAUAAAA [Sensor V2: 66] (Eterna round: R96, puzzle: Sensor v2, turn-off variant)	0.0391	0.0412	0.117	–	–	–
ACAAGCUUGUAAUGAUUGAACAUGAGGAUCACCCAUGUAAAUGGAAGAACCAAUUUGAUAAGAUAUACUCGUCUUAU [JR_STOV1_Sub007] (Eterna round: R97, puzzle: Sensor, turn-off variant 1)	0.0578	0.0591	–	–	–	–
ACAAGCUUUGAGUUCGUCUUAUACACUCCUAAUAAGAAAACAUGAGGAUCACCCAUGUAAGAAAUAAGAACUCAUGU [Sesor Array 3 - Jieux - Sensor v3, turn-off variant 2] (puzzle: Sensor v3, turn-off variant 2)	–	–	–	0.0255	0.291	0.0278
ACAAGCUUUUGCUCGUCUUACAUGAGGAUCACCCAUGUCGGGUGCUUGCUUACGUCCAGCAUCUGGACCGUAGCAGU [-24.6, -43.1 kcal, 19% A] (Eterna round: R97, puzzle: Sensor, turn-off variant 1)	0.142	0.165	–	–	–	–
ACAAGCUUUUUCAUAUCUUACAUGAGGAUCACCCAUGUUUUUGCAAUUAUGUUUGGGCUCUUUUGUGCUCGUCUUAU [JR_STOV1_Sub049] (Eterna round: R97, puzzle: Sensor, turn-off variant 1)	0.0149	0.0154	–	–	–	–
ACAAGCUUUUUGUUCGUCUUAUAAAAUCCUAAGAGGAUAACAUGAGGAUCACCCAUGUAACAAAGACGGACUCAUGU [Sesor Array 13 - Jieux - Sensor v3, turn-off variant 2] (puzzle: Sensor v3, turn-off variant 2)	–	–	–	0.0117	0.12	0.00957
ACAAGCUUUUUGUUCGUCUUAUAAUAUUAAAUAAAGAUAACAUGAGGAUCACCCAUGUAACAAAGACGGACUCAUGU [Sesor Array 17 - Jieux - Sensor v3, turn-off variant 2] (puzzle: Sensor v3, turn-off variant 2)	–	–	–	0.0162	0.2	0.0138
ACACAAAGCUAGGAUAUCGAGGCAUCUUCGGCCCGAGAAGGAGCCACAUGAGGAUCACCCAUGUGGUGAUCCUG [eternacac ex6r4 sub4] (Eterna round: R97, puzzle: Exclusion 6)	0.1	0.121	–	–	–	–
ACACAGAUAGGAUAUCGGACUAUGGACAUGAGGAUCACCCAUGUGCGUCCAAUGUCCGACCGAGAAGGAUCAACAG [Teesvete] (puzzle: Exclusion 5)	–	–	–	0.146	0.0518	0.077
ACAGUGCGAGGAUAUACAUGAGGAUCACCCAUGUGAGAGAAAUAAGUGAGGAAGAAAAGUAGAAGGCGCGUUGA [Mat - Exclusion 3 - Mod of Salish D70] (puzzle: Exclusion 3)	–	–	–	–	0.0458	–
ACAGUUUUGCAAGGAUAUCGUUUUAGUUUAUUACGAGAAGGUGCUUUAGUUAUUUCUUUGGGUUGACAUGAGGAUCACCCAUGU [JR_ExcNG1_Sub057] (Eterna round: R96, puzzle: Exclusion NG 1)	0.136	0.148	0.144	–	–	–
ACAUGACAGCUAGGAUAUAAAUGACAUGAGGAUCACCCAUGUUGUCCCAUGUUGAGGAUCACCCAUUAGAAGGAGCCACCCAUG [Exclusion NG2 S1] (Eterna round: R96, puzzle: Exclusion NG 2)	0.0928	0.0853	0.0492	–	–	–
ACAUGACUGCUAGGAUAUAGAUGACAUGAGGAUCACCCAUGUUGUCCCAUGUUUAUGGAAACGGACUAGAAGGAGUAGUAUAUG [Ex NG2 #14] (Eterna round: R96, puzzle: Exclusion NG 2)	0.0307	0.0279	0.0234	–	–	–
ACAUGAGGAUCACCCAUGUAAUCAUGAUGGCUGAUGUAGAGCUAGGAUAUGAGUGGCUUUCUAUCUCAGAAGGAGCUAGACUGG [Deportation 41 - Jieux - Exclusion NG 3] (Eterna round: R96, puzzle: Exclusion NG 3)	0.0293	0.0349	0.0181	–	–	–
ACAUGAGGAUCACCCAUGUAAUCAUGAUGGCUGAUGUAGAGGUAGGAUAUGUGUGGCUUUCUAUCACAGAAGGACCAAGACUGG [Deportation 38 - Jieux - Exclusion NG 3] (Eterna round: R96, puzzle: Exclusion NG 3)	0.0463	0.0598	0.0466	–	–	–
ACAUGAGGAUCACCCAUGUCCGGCUGGUCCGUCUCGGCUGUCGAGGAUAUAGCUCGGUGUCCGCGCUAGAAGGUGGGAGCCGGC [Aenatbe mod 72] (Eterna round: R96, puzzle: Exclusion NG 3)	0.212	0.217	0.134	–	–	–
ACAUGAGGAUCACCCAUGUCCGGCUGGUCCGUCUCGGCUGUCGAGGAUAUGGCUCGGUGUCCGCGCUAGAAGGUGGGAGCCGGA [Aenatbe mod 75] (Eterna round: R96, puzzle: Exclusion NG 3)	0.0567	0.0935	0.0451	–	–	–
ACAUGAGGAUCACCCAUGUCCGGCUGGUCCGUCUCGGCUGUCGAGGAUAUGGCUCGGUGUCCGCGCUAGAAGGUGGGAGCCGGC [Aenatbe mod 73] (Eterna round: R96, puzzle: Exclusion NG 3)	0.332	0.266	0.127	–	–	–
ACAUGAGGAUCACCCAUGUCCGGCUGGUCUGUUCCGGCUGUCGAGGAUAUAGUCCGGUGUUCGCGCUAGAAGGUGAGGGCUGGA [Aenatbe mod 45] (Eterna round: R96, puzzle: Exclusion NG 3)	0.0789	0.0701	0.0486	–	–	–
ACAUGAGGAUCACCCAUGUCCGUCUGAUCUGUCUCGGCUGUCGAGGAUAUAGCCCGGUAUCCGCGCUAGAAGGUGGGAGUCGGC [Aenatbe mod 99] (Eterna round: R96, puzzle: Exclusion NG 3)	0.0298	0.0357	0.0253	–	–	–
ACAUGAGGAUCACCCAUGUCUGGCUGGUCCGUCUCGGCUGUCGAGGAUAUAGCUCGGUGUCCGCGCUAGAAGGCGGGAGCUGGC [Aenatbe mod 81] (Eterna round: R96, puzzle: Exclusion NG 3)	0.135	0.081	0.0522	–	–	–
ACAUGAGGAUCACCCAUGUGAAAACAAUGGCUGACACAGAGAUAGGAUAUAUGUGCAUAUCAAACAUAGAAGGGUCAUUACUGG [Deportation 86 - Jieux - Exclusion NG 3] (Eterna round: R96, puzzle: Exclusion NG 3)	0.0426	0.0462	0.0402	–	–	–
ACAUGAGGAUCACCCAUGUGAAAACAAUGGCUGACUAAGAGAUAGGAUAUAUGUGCAUAUCAAACAUAGAAGGGUCAUUACUGG [Deportation 88 - Jieux - Exclusion NG 3] (Eterna round: R96, puzzle: Exclusion NG 3)	0.0361	0.0372	0.0253	–	–	–
